From patent US11840557B2, “Wnt7 variants capable of activating g-protein coupled receptor (Gpr)124/Reck/frizzled/lipoprotein receptor-related protein (LRP)-mediated Wnt signaling” (UNIVERSITÉ LIBRE DE BRUXELLES, priority 2018, dated 2023)

What was measured:
all 10 Fz genes = assay: STF luciferase assay after co-transfection with all 10 Fz genes, no Gpr124/Reck; format: cell-based; details: in the absence of Gpr124/Reck
Description: Cells were plated into 96-well plates and transfected after 24 h in triplicate with Lipofectamine 2000 (Invitrogen, Carlsbad, Calif.). The amount of plasmid DNA transfected per well was optimized for each expression vector: Renilla luciferase (0.5 ng), Wnt (20 ng), Fz (5 ng), LRP (2.5 ng), Gpr124 (10 ng), Reck (10 ng) unless otherwise indicated. The total amount of DNA was adjusted to 100 ng per well with the empty pCS2 vector. Cells were harvested in passive lysis buffer (E1960, Promega, Wisconsin) and the activities of the Firefly and Renilla luciferases were measured sequentially using the Dual-Luciferase Reporter Assay system (E1960, Promega, Madison, Wis.) 48 h post-transfection.

zebrafish zygote = format: in vivo, Danio rerio; details: injection in zygote, 3 dpf larvae
Description: (§1) The following splice-blocking morpholino (MOs) (GeneTools, Eugene, OR) were injected into embryos at the one-cell stage: wnt7aa ([…], 6 ng) (SEQ ID NO.: 123). Synthetic mRNAs were transcribed from pCS2 plasmids after NotI digestion using the mMessage mMachine SP6 Kit (Ambion, Carlsbad, CA) and injected into one-cell stage zebrafish embryo. For Xenopus laevis microinjection, 15 pg of wnt7a or wnt7a^K190A or wnt7a^1-278 mRNA were injected into one ventral blastomere of the four-cell stage embryo.
(§2) zebrafish embryos were imaged with an LSM710 confocal microscope and images were processed in ImageJ. Images of zebrafish development phenotypes were taken on Leica M165 FC. Xenopus larvae were imaged with an Olympus SZX16.

wnt7aa morphants = assay: Trunk DRG rescue in wnt7aa morphant zebrafish larvae; format: in vivo, Danio rerio; details: 100 pg mRNA injection, 72 hpf
Description: Zebrafish (Danio rerio) were raised and handled under standard conditions following the rules of the State of Belgium (protocol approval number: CEBEA-IBMM-2017-22:65). The following line was used: Tg(−17.0neurog1:EGFP)^w61 (McGraw et al., J. Neurosci 28(47):12558-69 (2008)).
as §1, §2

[1] = test system: Wnt7aa^−/− mutant zebrafish; assay: Transgenic endothelial expression (kdrl promoter) in Wnt7aa−/− zebrafish: hindbrain CtAs and GLUT1 staining; format: in vivo, Danio rerio; details: 60 hpf embryos
From the text: (A) Dorsal views of the cerebral vasculatures of 60 hpf WT or Wnt7aa^−/− Tg(kdrl:EGFP) embryos. In Wnt7a^−/− mutants, the intracerebral CtAs are lacking. Wnt7, Wnt7a^K190A or Wnt7a^1-278 were transiently expressed in the endothelium of Wnt7aa^−/− embryos under the control of an endothelial-specific kdrl (Vascular endothelial growth factor receptor kdr-like) promoter. The Wnt7 ligands were expressed as a biscistronic construct with BFP (Blue Fluorescent Protein) used as transgenesis marker. In contrast to uninjected embryos, Wnt7, Wnt7a^K190A or Wnt7a^1-278 restore hindbrain CtAs formation in Wnt7aa^−/− mutants as quantified in (B). (C) Anti-GLUT1 staining of the CtAs after transgenic expression of Wnt7, Wnt7a^K190A and Wnt7a^1-278 in 60 hpf Wnt7aa^−/− embryos. Transgenic expression was achieved as in (A).
Mouse Wnt7, Wnt7a^K190A and Wnt7a^1-278 were transiently expressed in the endothelium of Wnt7aa^−/− embryos under the control of an endothelial-specific kdrl (Vascular endothelial growth factor receptor kdr-like) promoter. The Wnt7 ligands were expressed as a biscistronic construct with BFP (Blue Fluorescent Protein) as transgenesis marker.

B1: Wnt7a^1-278: the N-terminal domain of Wnt7a, single domain truncated variant (protein)
chain: LGASIICNKIPGLAPRQRAICQSRPDAIIVIGEGSQMGLDECQFQFRNGRWNCSALGERTVFGKELKVGSREAAFTYAIIAAGVAHAITAACTQGNLSDCGCDKEKQGQYHRDEGWKWGGCSADIRYGIGFAKVFVDAREIKQNARTLMNLHNNEAGRKILEENMKLECKCHGVSGSCTTKTCWTTLPQFRELGYVLKDKYNEAVHVEPVRASRNKRPTFLKIKKPLSYRKPMDTDLVYIEKSPNYC
modifications: left off: small tags and cut ends
notes: the N-terminal domain of Wnt7a, single domain truncated variant
For B1, the “signaling through any Fz” value (all 10 Fz genes) was “failed to signal through any Fz”, the “mRNA dose well tolerated without posteriorizing or gross anatomical alterations” value (zebrafish zygote) was “up to 1 ng” and the DRG rescue (wnt7aa morphants) was “significant DRG rescues”. The “blood-brain barrier (GLUT1 expression)” value ([1]; anti-GLUT1 staining of CtAs) was “restored blood-brain barrier” and the “brain angiogenesis / hindbrain CtAs formation” value ([1]; transient endothelial expression) was “triggered GPR124/RECK-dependent brain angiogenesis”.
